Experimental data published in US20240181006A1, “POLYPEPTIDES BINDING ADAMTS5, MMP13 AND AGGRECAN” (Merck Patent GmbH, priority 2017, published 2024).
Values belong to the binder of their own block, whether it stands above or below them.

Columns and labels:
bovine ADAMTS5 (bovine) = bovine ADAMTS5 (bovine) (UniProt Q9TT92); experiment: SPR (Biacore T100), ADAMTS5 immobilized on CM5, 100 nM ISVD, Experiment 3
[1] = molecular target: recombinant dog Aggrecan G1-IGD-G2 (dog) (UniProt Q28343); experiment: periplasmic extract ELISA on Dog G1-IGD-G2
[2] = molecular target: recombinant rat Aggrecan G1-IGD-G2 (rat) (UniProt P07897); experiment: periplasmic extract ELISA on Rat G1-IGD-G2
[3] = molecular target: recombinant human Aggrecan G1-IGD-G2 (human) (UniProt P16112); experiment: periplasmic extract ELISA on Hu G1-IGD-G2
[4] = molecular target: recombinant bovine Aggrecan G1-IGD-G2 (bovine) (UniProt P13608); experiment: periplasmic extract ELISA on Bov G1-IGD-G2
[5] = molecular target: recombinant cynomolgus Aggrecan G1-IGD-G2 (cynomolgus); experiment: periplasmic extract ELISA on Cy G1-IGD-G2

koff (bovine ADAMTS5 (bovine)): 4.3e-05 s⁻¹
B1: anti-ADAMTS5 ISVD 02F03 (VHH)
VHH: EVQLVESGGGVVQPGGSLRLSCAASGRTVSSYAMGWFRQAPGKEREFVAGISRSAERTYYVDSLKGRFTISRDNSKNTVYLQMNSLRPEDTALYYCAADLDPNRIFSREEYAYWGQGTLVTVSS

OD 450 nm [1]: 1.9 OD 450 nm
OD 450 nm [2]: 2.05 OD 450 nm
OD 450 nm [3]: 2.38 OD 450 nm
OD 450 nm [4]: 1.18 OD 450 nm
OD 450 nm [5]: 2.32 OD 450 nm
B2: anti-Aggrecan ISVD 114F08 (VHH)
VHH: EVQLVESGGGLVQAGGSLRLSCAASGSTFIINVVRWYRRTPGKQRELVATISSGGNANYVDSVRGRFSISRDGAKNAVDLQMNGLKPEDTAVYYCNVPTTHYGGVYYGPYWGQGTLVTVSS
